Experimental findings from IntAct's records for PubMed 31712417 are described below.

Sequence of if4e_human EIF4E (P06730 whole entry): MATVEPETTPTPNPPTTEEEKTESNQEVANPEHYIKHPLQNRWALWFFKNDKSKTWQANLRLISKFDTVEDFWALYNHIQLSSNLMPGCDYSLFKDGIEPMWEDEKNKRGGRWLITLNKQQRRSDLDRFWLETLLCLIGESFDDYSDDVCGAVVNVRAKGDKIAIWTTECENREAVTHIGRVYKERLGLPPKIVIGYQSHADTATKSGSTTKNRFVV

The experiment addresses if4e_human EIF4E (UniProt P06730).
As for “Genome polyprotein (Potato virus Y (strain N)), P18247 D1935K”, the “effect of a mutation on the interaction” value is recorded as “with no effect”.

As to “Genome polyprotein (Potato virus Y (strain N)), P18247 D1954A;D1955A;E1957A”, the “effect of a mutation on the interaction” value is “decreasing interaction”.

As for “Genome polyprotein (Potato virus Y (strain N)), P18247 D1954A;D1955A;Q1959A”, the “effect of a mutation on the interaction” value is on record as “decreasing interaction”.

Take “Genome polyprotein (Potato virus Y (strain N)), P18247 E1929K;E1930K”: the “effect of a mutation on the interaction” value was “with no effect”.

On to “Genome polyprotein (Potato virus Y (strain N)), P18247 E1941K;E1945K”, for which the “effect of a mutation on the interaction” value is reported as “with no effect”.

In the case of “Genome polyprotein (Potato virus Y (strain N)), P18247 L1961G”, the “effect of a mutation on the interaction” value is “decreasing interaction”.

For “Genome polyprotein (Potato virus Y (strain N)), P18247 M1958A;Q1959A”, the “effect of a mutation on the interaction” value is on record as “decreasing interaction”.

As for “Genome polyprotein (Potato virus Y (strain N)), P18247 V1951G;E1952K”, the “effect of a mutation on the interaction” value is listed as “decreasing interaction”.
